Here are results for one substance from patent US20230365956A1.

For experiment [1], the target named is SARS-CoV-2 RBD, wild type (Sino Biological) (SARS-CoV-2) (UniProt P0DTC2). The experiment is described as follows: BLI, avidity format: response at highest analyte concentration. A general note: BLI is a label-free optical method that tracks binding on a fibre tip over time.
The target is the same in experiment [2]. Nature of the experiment: BLI, affinity format: response at highest analyte concentration.
Experiment [3] has the same target. Nature of the experiment: BLI, avidity format: biotinylated RBD on SA sensor, binder in solution.
The target is the same in experiment [4]. The experiment is described as follows: BLI, affinity format: binder on AHC sensor, RBD in solution.

For Cilgavimab (antibody), the Response in experiment [1] amounted to 0.64 nm shift; in experiment [2], 0.397 nm shift. For the same substance, the Kd in experiment [3] is 0.21 nM; in experiment [4] it was 3.98 nM. For the same substance, the koff is 6.53e-05 s⁻¹ in experiment [3] and 0.00172 s⁻¹ in experiment [4]. Also, the values for the kon in experiment [3] and in experiment [4] were 312000 M⁻¹ s⁻¹ and 434000 M⁻¹ s⁻¹, respectively.

The term koff denotes the first-order rate constant of dissociation. Lower therefore signals slow dissociation. One may read the kon as the second-order rate constant of association. A lower kon goes with slow association.
